The assay concerns the target recombinant human VEGF-165 (R&D Systems) (human) (UniProt P15692).

Chain of recombinant human VEGF-165 (R&D Systems) (human) (P15692 other isoform, or with tags, fused parts or gaps limits assumed): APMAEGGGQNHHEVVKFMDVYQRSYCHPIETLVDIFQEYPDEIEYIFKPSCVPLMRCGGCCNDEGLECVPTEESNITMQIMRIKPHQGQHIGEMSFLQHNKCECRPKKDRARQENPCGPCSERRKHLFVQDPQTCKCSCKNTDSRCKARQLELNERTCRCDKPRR

In the case of Eylea (aflibercept) (Fc fusion), the IC50, inhibition of VEGF-stimulated HuRMVEC proliferation (WST-1, OD450) was determined as 0.683 nM.

Source of the values: patent US20210324063A1.
